From publication doi:10.1101/2023.05.02.539157, “Toxic anti-phage defense proteins inhibited by intragenic antitoxin proteins” (bioRxiv, 2023) come the findings set out here.

The term stoichiometry N denotes the number of molecules, sites or subunits per partner or assembly.

Data set [1] deals with the molecule itself. In words: SEC-MALS; multi-angle light scattering coupled with size exclusion chromatography of purified RpnAS and of the purified RpnALS complex. A general note: In gel filtration, larger molecules generally elute earlier.
In data set [2] the target is T1, RpnAL (full-length RpnA, wild type, in the native RpnALS complex) (E. coli, UniProt P31667 1-292).
T1 construct: source: E. coli, WT rpnA gene in an overexpression vector, C-terminally tagged intein fusion, purified together with RpnAS
T1 sequence (looked up): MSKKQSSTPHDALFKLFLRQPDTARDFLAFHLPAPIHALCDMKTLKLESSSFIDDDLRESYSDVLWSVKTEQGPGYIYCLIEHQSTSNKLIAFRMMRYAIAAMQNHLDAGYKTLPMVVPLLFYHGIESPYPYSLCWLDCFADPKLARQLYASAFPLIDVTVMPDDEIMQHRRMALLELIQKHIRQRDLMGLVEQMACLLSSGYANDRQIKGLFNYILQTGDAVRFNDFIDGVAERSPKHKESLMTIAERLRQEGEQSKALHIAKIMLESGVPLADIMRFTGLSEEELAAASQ
Described as above. Particulars: both partners purified.

In data set [3] the target is T2, RpnAL* (RpnA_(K240R+E241D+M244L)) (E. coli, UniProt P31667 1-292, K240R | E241D | M244L).
T2 construct: source: E. coli, overexpressed as C-terminally tagged intein fusion protein, purified
T2 sequence (looked up): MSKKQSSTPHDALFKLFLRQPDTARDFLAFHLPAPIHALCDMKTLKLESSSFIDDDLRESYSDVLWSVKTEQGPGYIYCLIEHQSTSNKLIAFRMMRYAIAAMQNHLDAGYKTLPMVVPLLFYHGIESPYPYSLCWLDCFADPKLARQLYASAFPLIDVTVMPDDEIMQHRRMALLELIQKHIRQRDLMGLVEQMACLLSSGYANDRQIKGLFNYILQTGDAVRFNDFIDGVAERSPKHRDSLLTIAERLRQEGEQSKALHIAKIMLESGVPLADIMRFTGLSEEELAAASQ
In words: SEC; Superdex 200 column; individually purified proteins alone and mixed, and the native co-purified RpnALS complex; peak fractions checked by SDS-PAGE. Particulars: both partners purified.

B1: RpnAS (natural protein, E. coli, UniProt P31667 244-292, looked up)
chain: MTIAERLRQEGEQSKALHIAKIMLESGVPLADIMRFTGLSEEELAAASQ
notes: also called RpnS of RpnA; small C-terminal protein of RpnA
Turning to B1, the entries for the “stoichiometry N” value in data set [1] and in data set [2] were 2 and 1 RpnAS per RpnAL (2:2), respectively. Besides, the binding result in data set [3] is listed as “binds”.
